Experiments:
acetylcholine receptor [1] = assay: SPR, peptide at 10 uM on acetylcholine receptor
acetylcholine receptor [2] = assay: SPR, peptide at 10 uM, acetylcholine receptor immobilized on chip

Binding affinity (RU) (acetylcholine receptor [1])	Binding affinity (RU) (acetylcholine receptor [2])	Binder
30 RU		KMEIR [5mer-965]
27 RU		KEKFR [5mer-993]
11 RU		RIPHR [5mer-968]
12 RU		KFMHK [5mer-982]
15 RU		RNDKK [5mer-992]
26 RU		RHMMR [5mer-974]
23 RU		RTTGR [5mer-983]
24 RU		RPEFR [5mer-991]
12 RU		KEEPK [5mer-990]
12 RU		RPMDK [5mer-986]
30 RU		RYPHR [5mer-997]
24 RU		RAPNK [5mer-963]
18 RU		RCTAK [5mer-998]
17 RU		RCKWR [5mer-988]
27 RU		RNTVR [5mer-969]
12 RU		KFDWK [5mer-698]
23 RU		RHHMK [5mer-979]
12 RU		KMTGK [5mer-971]
12 RU		RYWAR [5mer-973]
33 RU		KYMNR [5mer-970]

Binding affinity (RU) (acetylcholine receptor [1])	Binding affinity (RU) (acetylcholine receptor [2])	Binder
26 RU		KKTHK [5mer-967]
17 RU		RDPKR [5mer-985]
	30 RU	KCTNR [5mer-901]
26 RU		KAWVR [5mer-994]
16 RU		KNMIR [5mer-977]
	23 RU	REDPK [5mer-902]
11 RU		KNAHK [5mer-984]
16 RU		RETNR [5mer-976]
14 RU		KYAKR [5mer-972]
33 RU		RKPHR [5mer-980]
32 RU		RMTKK [5mer-996]
18 RU		RFAHK [5mer-975]
31 RU		RCTAR [5mer-989]
22 RU		KYTDR [5mer-964]
22 RU		RAHWR [5mer-987]
18 RU		KFTDK [5mer-995]
32 RU		RPSAK [5mer-966]
23 RU		RIWKR [5mer-962]
33 RU		KNDKK [5mer-981]
30 RU		RYDHK [5mer-978]

Continued, binder first:

Binder	Binding affinity (RU) (acetylcholine receptor [1])	Binding affinity (RU) (acetylcholine receptor [2])
KCAER [5mer-684]	27 RU	
RFTER [5mer-680]	21 RU	
KKPDR [5mer-695]	26 RU	
RKPGR [5mer-675]	31 RU	
RKEPK [5mer-603]		27 RU
RDCHR [5mer-667]	16 RU	
RFNIR [5mer-686]	18 RU	
RPHFK [5mer-688]	31 RU	
KASKK [5mer-697]	25 RU	
KIEEK [5mer-662]	28 RU	
KEWEK [5mer-691]	16 RU	
RFCFK [5mer-601]		13 RU
RFSDK [5mer-689]	20 RU	
RISPR [5mer-673]	14 RU	
KMNAK [5mer-671]	21 RU	
KTWEK [5mer-665]	26 RU	
RNPER [5mer-669]	24 RU	
RDHWK [5mer-692]	15 RU	
KPNVK [5mer-682]	31 RU	
RPSKK [5mer-693]	17 RU	

Binder	Binding affinity (RU) (acetylcholine receptor [1])	Binding affinity (RU) (acetylcholine receptor [2])
KNNAR [5mer-694]	24 RU	
KMSVR [5mer-602]		12 RU
KKTVK [5mer-679]	21 RU	
RHDWR [5mer-666]	18 RU	
KYPDK [5mer-683]	32 RU	
RAEIK [5mer-690]	12 RU	
RATPR [5mer-663]	31 RU	
KPTWR [5mer-664]	17 RU	
RMEIR [5mer-687]	22 RU	
RCEHR [5mer-696]	11 RU	
RCEMR [5mer-677]	15 RU	
RTMFR [5mer-676]	18 RU	
KETHR [5mer-674]	22 RU	
KYMGR [5mer-678]	23 RU	
RNDIK [5mer-685]	21 RU	
KPCVK [5mer-670]	23 RU	
KHAPK [5mer-672]	12 RU	
KDTMR [5mer-681]	18 RU	
RPHAK [5mer-668]	27 RU	
